Source: IntAct's records for PubMed 18045938

B1: Envelope glycoprotein B (Human herpesvirus 8), F5HB81 (parent)
chain: MTPRSRLATLGTVILLVCFCAGAAHSRGDTFQTSSSPTPPGSSSKAPTKPGEEASGPKSVDFYQFRVCSASITGELFRFNLEQTCPDTKDKYHQEGILLVYKKNIVPHIFKVRRYRKIATSVTVYRGLTESAITNKYELPRPVPLYEISHMDSTYQCFSSMKVNVNGVENTFTDRDDVNTTVFLQPVEGLTDNIQRYFSQPVIYAEPGWFPGIYRVRTTVNCEIVDMIARSAEPYNYFVTSLGDTVEVSPFCYNESSCSTTPSNKNGLSVQVVLNHTVVTYSDRGTSPTPQNRIFVETGAYTLSWASESKTTAVCPLALWKTFPRSIQTTHEDSFHFVANEITATFTAPLTPVANFTDTYSCLTSDINTTLNASKAKLASTHVPNGTVQYFHTTGGLYLVWQPMSAINLTHAQGDSGNPTSSPPPSASPMTTSASRRKRRSASTAAAGGGGSTDNLSYTQLQFAYDKLRDGINQVLEELSRAWCREQVRDNLMWYELSKINPTSVMTAIYGRPVSAKFVGDAISVTECINVDQSSVNIHKSLRTNSKDVCYARPLVTFKFLNSSNLFTGQLGARNEIILTNNQVETCKDTCEHYFITRNETLVYKDYAYLRTINTTDISTLNTFIALNLSFIQNIDFKAIELYSSAEKRLASSVFDLETMFREYNYYTHRLAGLREDLDNTIDMNKERFVRDLSEIVADLGGIGKTVVNVASSVVTLCGSLVTGFINFIKHPLGGMLMIIIVIAIILIIFMLSRRTNTIAQAPVKMIYPDVDRRAPPSGGAPTREEIKNILLGMHQLQQEERQKADDLKKSTPSVFQRTANGLRQRLRGYKPLTQSLDISPETGE

Variants of: B1
Settings: with itb3_human ITGB3, P05106
itb3_human ITGB3, P05106, sequence (P05106 whole entry): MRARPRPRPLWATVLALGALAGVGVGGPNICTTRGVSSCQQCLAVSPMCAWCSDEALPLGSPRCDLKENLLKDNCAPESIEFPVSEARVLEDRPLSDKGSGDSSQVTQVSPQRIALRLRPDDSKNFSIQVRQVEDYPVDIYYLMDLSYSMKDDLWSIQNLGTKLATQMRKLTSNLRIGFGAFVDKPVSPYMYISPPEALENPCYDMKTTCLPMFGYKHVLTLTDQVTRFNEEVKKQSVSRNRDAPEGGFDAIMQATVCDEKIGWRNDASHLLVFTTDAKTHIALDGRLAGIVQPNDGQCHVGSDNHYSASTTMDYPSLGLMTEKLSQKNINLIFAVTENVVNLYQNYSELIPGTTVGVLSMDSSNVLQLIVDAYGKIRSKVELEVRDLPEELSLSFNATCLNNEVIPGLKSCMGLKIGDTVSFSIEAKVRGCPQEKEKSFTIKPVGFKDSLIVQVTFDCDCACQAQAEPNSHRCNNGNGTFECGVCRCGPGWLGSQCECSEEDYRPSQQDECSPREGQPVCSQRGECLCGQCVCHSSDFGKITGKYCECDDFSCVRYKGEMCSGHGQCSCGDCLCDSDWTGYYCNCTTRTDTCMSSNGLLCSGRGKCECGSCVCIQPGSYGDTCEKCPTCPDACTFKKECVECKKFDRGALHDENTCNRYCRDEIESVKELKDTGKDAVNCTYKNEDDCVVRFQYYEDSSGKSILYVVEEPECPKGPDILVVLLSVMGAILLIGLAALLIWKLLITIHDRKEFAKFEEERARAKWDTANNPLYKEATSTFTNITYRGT

| Variant | effect of a mutation on the interaction |
| --- | --- |
| D29E | disrupting interaction |
